Data published in patent US20260167731A1 (DOMAIN THERAPEUTICS, published 2026).
Positions count from the first letter of the chain named. “And” between values parts separate entries of the source, which are not always exact repeats. Identical values can stand only once.

B1: anti-CCR8 mAb 2-1 (antibody, V domains shown)
VH: KVQLQQSGPELVKPGASVKISCKTSGYTFTEYTIHWVQQIHGKSPEWIGGINPNGDTRYDQKFKGKATLTIDKSSSTAYMELRSLTSEDSAVYYCARVARFYGISPYAMDYWGQGTSVTVSS
VL: DVVMTQTPLSLPVSLGDQASISCRCTQSLLHSNGDTYLHWYLQKPGQSPNLLIYKVSNRFSGVPDRFSGSGSGTDFTLKINRVEAEDLGVYFCSQSTHVPYTFGGGTNLEIK
B2: anti-CCR8 mAb 2-2 (antibody, V domains shown)
VH: QVQLKESGPGLVAPSQSLSITCTVSGLSMNDYVVTWIRQPPGKGLEWLGVIWGGGNTYYNSDLKSRLSITKDNSKSQVFFKMSSLQTDDTAVYYCARRHRDYALDYWGQGISVTVSS
VL: B1 VL with C25S, T26S, L30V, H31Y, D35N, N50K, N81S, H98Y, Y101P, N108K
B3: anti-CCR8 mAb 2-4 (antibody, V domains shown)
VH: EVQLQQSGPELVKPGASVKISCKTSGYTFTEYTIHWVKQSHGESLEWVGGINPNNGNTRYDQKFKGKATLTIDKSSSPAYMELRSLTSEDSAVYYCARVARSSGSGPYAMDYWGQGTSVTVSS
VL: B1 VL with S32T, N50K, N81S, N108K
B4: anti-CCR8 mAb 2-10 (antibody, V domains shown)
VH: QVQVQQSGAELARPGASVKMSCKASGYTFTTYAMHWVKQRPGQGLEWIGHINPSSGYSNYNQKFKDKATLTADKSSSTAYMQLSSLTSEDSAVYYCARSEVRRGYFDVWGAGTTVTVSS
VL: DIQMTQTTSSLSASLGDRVTISCRTSQDIRNYLNWYQQKPDGTVKLLISYTSRLHSGVPSRFSGSGSGTDYSLTISNLEQEDFATYFCQQGNTLPPTFGGGTRVEIK
B5: anti-CCR8 mAb 2-11 (antibody, V domains shown)
VH: EVQLQQSGPELVKPGASVKISCKASVYSFTGSYMHWVKQSHVKSLEWIGRINPYNGATSYNQNFKDKASLTVDKSSSTAYMELHSLTSEDSAVYYCATTLLRLLDYWGQGTTLTVSS
VL: DIVMTQAAFSNPVTLGTSASISCRSSKSLLHSNGITYLYWYLQKPGQSPQLLIYQMSNLASGVPDRFSSSGSGTDFTLRISRVEAEDVGVYYCAQNLELPWTFGGGTKLEIK
B6: chimeric anti-CCR8 mAb 2-18 (antibody, human IgG1, kappa)
heavy: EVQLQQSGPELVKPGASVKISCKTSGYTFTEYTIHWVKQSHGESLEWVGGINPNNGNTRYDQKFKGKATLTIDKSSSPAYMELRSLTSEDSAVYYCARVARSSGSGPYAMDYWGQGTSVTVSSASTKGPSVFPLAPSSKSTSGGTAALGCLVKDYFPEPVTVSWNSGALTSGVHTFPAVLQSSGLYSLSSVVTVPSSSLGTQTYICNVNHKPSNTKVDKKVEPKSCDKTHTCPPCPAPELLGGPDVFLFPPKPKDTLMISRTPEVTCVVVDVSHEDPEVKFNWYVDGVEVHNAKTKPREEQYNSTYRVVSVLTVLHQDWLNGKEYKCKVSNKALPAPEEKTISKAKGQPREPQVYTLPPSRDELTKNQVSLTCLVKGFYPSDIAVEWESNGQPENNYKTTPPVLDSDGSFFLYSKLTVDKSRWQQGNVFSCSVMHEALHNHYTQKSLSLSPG
light: DVVMTQTPLSLPVSLGDQASISCRCTQSLLHTNGDTYLHWYLQKPGQSPKLLIYKVSNRFSGVPDRFSGSGSGTDFTLKISRVEAEDLGVYFCSQSTHVPYTFGGGTKLEIKRTVAAPSVFIFPPSDEQLKSGTASVVCLLNNFYPREAKVQWKVDNALQSGNSQESVTEQDSKDSTYSLSSTLTLSKADYEKHKVYACEVTHQGLSSPVTKSFNRGEC

Key:
[1] = target: pm3, modified CCR8 related peptide (human, sulfated tyrosine at Y17); assay: ELISA on coated CCR8 peptide (500 ng/mL), OD [cont.]
Chain of pm3, modified CCR8 related peptide (human, sulfated tyrosine at Y17) (peptide, as listed by the source): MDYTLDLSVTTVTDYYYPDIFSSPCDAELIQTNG
In short: (§1)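 Binding is scored by optical density: plates carry 500 ng/mL peptide in carbonate/bicarbonate buffer, receive mAb at 1 μg/mL or diluted 1/10 for 90 min at room temperature, then TMB for 15 min.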

[2] = target: T1, pwt1, unmodified CCR8 related peptide (human, none (non-sulfated Y15, Y16, Y17)); assay: as above
T1 construct: First 34 amino acids of human CCR8, synthetic; also called unmodified peptide
T1 sequence (peptide, as listed by the source): as above
In short: as §1

[3] = target: pm2, modified CCR8 related peptide (human, sulfated tyrosine at Y16); assay: as above
Chain of pm2, modified CCR8 related peptide (human, sulfated tyrosine at Y16) (peptide, as listed by the source): as above
In short: as §1

[4] = target: pm5, modified CCR8 related peptide (human, sulfated tyrosines at Y15 and Y17); assay: as above
Chain of pm5, modified CCR8 related peptide (human, sulfated tyrosines at Y15 and Y17) (peptide, as listed by the source): as above
In short: as §1

[5] = target: pm8, modified CCR8 related peptide (human, sulfated tyrosines at Y15, Y16 and Y17); assay: as above
Chain of pm8, modified CCR8 related peptide (human, sulfated tyrosines at Y15, Y16 and Y17) (peptide, as listed by the source): as above
In short: as §1

[6] = target: pm4, modified CCR8 related peptide (human, sulfated tyrosines at Y15 and Y16); assay: as above
Chain of pm4, modified CCR8 related peptide (human, sulfated tyrosines at Y15 and Y16) (peptide, as listed by the source): as above
In short: as §1

[7] = target: pm1, modified CCR8 related peptide (human, sulfated tyrosine at Y15); assay: as above
Chain of pm1, modified CCR8 related peptide (human, sulfated tyrosine at Y15) (peptide, as listed by the source): as above
In short: as §1

[8] = target: pm6, modified CCR8 related peptide (human, sulfated tyrosines at Y16 and Y17); assay: as above
Chain of pm6, modified CCR8 related peptide (human, sulfated tyrosines at Y16 and Y17) (peptide, as listed by the source): as above
In short: as §1

[9] = target: T2, human CCR8 (human, UniProt P51685 1-355); assay: cell-based or functional assay
[10] = target: T2, human CCR8; assay: flow cytometry, hCCR8 transfected CHOK1 cells
In short: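 Flow cytometry read fluorescent secondary antibody (anti-mouse Alexa 488 or anti-human Fc PE) after washing, with matched isotype controls included.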

[11] = target: T2, human CCR8; assay: cell-based or functional assay; remark: listed apart in the source
[12] = target: T2, human CCR8; assay: cell-based or functional assay; remark: listed apart in the source
[13] = target: T2, human CCR8; assay: flow cytometry, inhibition of hCCL1-AF647 binding to hCCR8 CHO cells
In short: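 hCCR8-transfected CHO cells preincubated 30 min at 4 °C with anti-CCR8 mAb from 10 μg/mL, 1/3 dilutions, 8 concentrations. Bound CCL1 quantified by flow cytometry. IC₅₀ from sigmoidal variable-slope fit.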

[14] = target: T2, human CCR8; assay: cell-based or functional assay; remark: listed apart in the source
[15] = target: T2, human CCR8; assay: cell-based or functional assay; remark: listed apart in the source
[16] = target: T2, human CCR8; assay: cell-based or functional assay; remark: listed apart in the source

Binder | binding result [1] | binding result [2] | binding result [3] | binding result [4] | binding result [5] | binding result [6] | binding result [7] | binding result [8] | hCCL1 (100 nM) residual response in %, Protocol #2, mAb 0.08 µg/mL (0.53 nM) [9] [%] | hCCL1 (100 nM) residual response in %, Protocol #2, mAb 0.4 µg/mL (2.67 nM) [9] [%] | hCCL1 (100 nM) residual response in %, Protocol #2, mAb 10 µg/mL (66.7 nM) [9] [%] | hCCL1 (100 nM) residual response in %, Protocol #3, mAb 0.05 µg/mL (0.33 nM) [9] [%] | hCCL1 (100 nM) residual response in %, Protocol #3, mAb 0.5 µg/mL (3.33 nM) [9] [%] | hCCL1 (100 nM) residual response in %, Protocol #3, mAb 5 µg/mL (33.3 nM) [9] [%] | % positive cells [10] [%] | MFI fold change to isotype ctrl [10] [fold] | IC50, CCL1 induced hCCR8 Gi2 signaling (BRET, HEK-293) [11] | Top plateau values in presence of 5 µg/mL mAb (% of hCCL1 (100 nM)), protocol #3 [12] [%] | IC50 [13] | IC50, CCL1 induced hCCR8 Gi2 signaling (BRET) at pH 6.5 [14] | further results
B1 | binds | binds | binds | binds | binds | binds | binds | binds | 101 | 93 | 100 | 92 | 81 | 73 | 85.7 | 9.8 | 0.462 nM and 0.069 µg/mL | 663 | 1.29 µg/mL and 8.62 nM | 0.051 µg/ml and 0.34 nM | IC50, CCL1 induced hCCR8 Gi2 signaling (BRET) at pH 7.4 [14]: 0.059 µg/ml and 0.396 nM
B2 | binds | binds | binds | binds | binds | binds | binds | binds | 99 | 97 | 97 | 99 | 84 | 75 | 85.2 | 11.9 | 0.143 µg/mL and 0.954 nM | 133 | 2.65 µg/mL and 15.2 nM | 0.414 µg/ml and 2.76 nM | IC50, CCL1 induced hCCR8 Gi2 signaling (BRET) at pH 7.4 [14]: 0.359 µg/ml and 2.4 nM
B3 | binds | binds | binds | binds | binds | binds | binds | binds | 104 | 46 | 28 | 80 | 57 | 45 | 56.2 | 4.78 | 0.046 µg/mL and 0.306 nM | 855 | 0.6 µg/mL and 4.01 nM |  | 
B4 | binds | binds | binds | binds | binds | binds | binds | binds | 52 | 68 | 53 | 76 | 62 | 59 | 77 | 9.2 | 0.004 µg/mL and 0.029 nM | 948 | 0.22 µg/mL and 1.46 nM |  | 
B5 |  |  |  |  |  |  |  |  | 97 | 96 | 84 | 96 | 81 | 73 | 34.7 | 2.34 | 0.092 µg/mL and 0.616 nM | 292 | 6.41 µg/mL and 43 nM | 0.162 µg/ml and 1.08 nM | IC50, CCL1 induced hCCR8 Gi2 signaling (BRET) at pH 7.4 [14]: 0.152 µg/ml and 1.01 nM
B6 |  |  |  |  |  |  |  |  |  |  |  |  |  |  |  |  |  |  |  |  | ADCC % Max lysis, HUT78 targets, NK cells Donor 3 [15]: 25%; ADCC % Max lysis, HUT78 targets, NK cells Donor 4 [15]: 28%; ADCC EC50, HUT78 targets, NK cells Donor 3 [15]: 218 pM; ADCC EC50, HUT78 targets, NK cells Donor 4 [15]: 53 pM; ADCP % Max of phagocytosis, HUT78 targets, monocyte-derived macrophages Donor 9 [16]: 7.27%
